In patent US20250236650A1:

Molecular target: murine CTLA-4 fused to CD3ζ, expressed on the murine T-cell hybridoma 58α-β-CTLA-4/CD3ζ (murine) (UniProt P09793)
Experiment: flow cytometry on 58α-β-CTLA-4/CD3ζ cells, R-PE donkey anti-mouse IgG secondary antibody, MFI

Sequence of mouse anti-mouse CTLA-4 antibody 9D9, mouse IgG1 isotype (light): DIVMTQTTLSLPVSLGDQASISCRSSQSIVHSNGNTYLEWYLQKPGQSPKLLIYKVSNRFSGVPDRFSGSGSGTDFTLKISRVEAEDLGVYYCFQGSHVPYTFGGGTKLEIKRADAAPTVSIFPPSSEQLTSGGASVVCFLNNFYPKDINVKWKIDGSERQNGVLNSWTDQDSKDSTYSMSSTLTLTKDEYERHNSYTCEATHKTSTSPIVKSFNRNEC
Sequence of mouse anti-mouse CTLA-4 antibody 9D9, mouse IgG1 isotype (heavy): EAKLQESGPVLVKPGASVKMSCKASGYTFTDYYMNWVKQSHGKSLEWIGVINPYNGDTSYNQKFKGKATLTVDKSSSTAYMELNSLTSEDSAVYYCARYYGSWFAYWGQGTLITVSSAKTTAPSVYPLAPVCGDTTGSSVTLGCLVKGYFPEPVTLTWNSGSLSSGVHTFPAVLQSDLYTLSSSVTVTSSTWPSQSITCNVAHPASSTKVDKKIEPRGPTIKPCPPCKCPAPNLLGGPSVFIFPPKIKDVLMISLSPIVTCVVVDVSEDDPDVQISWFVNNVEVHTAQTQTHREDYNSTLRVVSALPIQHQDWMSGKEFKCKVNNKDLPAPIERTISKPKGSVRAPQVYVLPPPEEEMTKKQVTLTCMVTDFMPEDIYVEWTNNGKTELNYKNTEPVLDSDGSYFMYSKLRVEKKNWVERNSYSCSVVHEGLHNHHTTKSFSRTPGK
Sequence of mouse anti-mouse CTLA-4 antibody 9D9, mouse IgG2b isotype (original isotype, derived from the hybridoma) (light): as the sequence (light) above
Sequence of mouse anti-mouse CTLA-4 antibody 9D9, mouse IgG2b isotype (original isotype, derived from the hybridoma) (heavy): as the sequence (heavy) above
Sequence of mouse anti-mouse CTLA-4 antibody 9D9, mouse IgG2a isotype (light): as the sequence (light) above
Sequence of mouse anti-mouse CTLA-4 antibody 9D9, mouse IgG2a isotype (heavy): as the sequence (heavy) above

Substance | EC50 (read off the curve) [µg/mL]
mouse anti-mouse CTLA-4 antibody 9D9, mouse IgG1 isotype | 0.6
mouse anti-mouse CTLA-4 antibody 9D9, mouse IgG1 isotype containing a D265A mutation (from UniProt P01868 1-324) | 0.2
mouse anti-mouse CTLA-4 antibody 9D9, mouse IgG2a isotype | 0.7
mouse anti-mouse CTLA-4 antibody 9D9, mouse IgG2b isotype (original isotype, derived from the hybridoma) | 0.4
